± gives the standard deviation of the averaged measurements.

For 116 sequences, protein stability index results are on record in the supplement of paper PMC10724198.
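Note: PSI is a weighted mean of sequencing reads over stability bins, variants kept only with over 10 reads, mCherry proximal and sfGFP distal, peptide attached via GGGS linker.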

This series deals with Saccharomyces cerevisiae. As to the kind of experiment: protein stability index of tFT-peptide fusion (C-terminal peptide) (PSI (0-1 scale)); higher = more stable (slower turnover). The following applies: genetic background: wild type; temperature: 30 C.
As for TICRKPTLMSPQ, the protein stability index was determined as 0.775 ± 0.061.

Sequence TICVILNGVGYS registered a protein stability index of 0.625 ± 0.11.

The sequence TIGPSYLLPDSF yielded a protein stability index of 0.784 ± 0.018.

TINSHNYKTKTP: the protein stability index turned out to be 0.664 ± 0.021.

TIPPSTRAITPV came in with a protein stability index of 0.652 ± 0.046.

As for TIRKNKTDVISK, the protein stability index is 0.667 ± 0.017.

The sequence TISHYSLAPTQI returned a protein stability index of 0.695 ± 0.02.

With TITRIAFRFCYS, the protein stability index is 0.556 ± 0.032.

In turn, TIVFLLPSPRSY showed a protein stability index of 0.657 ± 0.0094.

TKKSKRKREQAE returned a protein stability index of 0.68 ± 0.026.

Consider TKRGQMLYQDKE, for which the protein stability index is 0.741 ± 0.1.

Sequence TKRIKEERTKKC gave a protein stability index of 0.65 ± 0.025.

TKRQKQKKKNKE gave a protein stability index of 0.696 ± 0.071.

TKTIKPNKKATV yielded a protein stability index of 0.655 ± 0.03.

Sequence TLFLFVSSFCMG yielded a protein stability index of 0.47 ± 0.067.

In the case of TLFQGHQLFKSR, the protein stability index amounted to 0.737 ± 0.0068.

In turn, TLLTIALLTGNL gave a protein stability index of 0.606 ± 0.063.

TLNSSPFTTPTI: the protein stability index was determined as 0.717 ± 0.074.

TLPFLYILDFFF yielded a protein stability index of 0.589 ± 0.0081.

For the sequence TLPPSPTPPLYP, the protein stability index was 0.773 ± 0.031.

With TLPSHPRLLSLH, the protein stability index is 0.6965 ± 0.0013.

Sequence TLPSPPPRPPPA showed a protein stability index of 0.702 ± 0.061.

Sequence TLQRARTGSTPK showed a protein stability index of 0.684 ± 0.055.

As to TLRVNAMFVEAM, the protein stability index came to 0.63 ± 0.014.

Consider TLSSSPRPLPVP, for which the protein stability index was 0.692 ± 0.051.

For the sequence TLTVCVNQGMTM, the protein stability index is 0.668 ± 0.024.

The sequence TLTVRASLHLEP registered a protein stability index of 0.636 ± 0.025.

As for TLVPPPSPPPSP, the protein stability index was 0.636 ± 0.065.

As for TLWLSGGGGMVI, the protein stability index stood at 0.731 ± 0.04.

Consider TNATENKNRHPN, for which the protein stability index was found to be 0.741 ± 0.068.

The sequence TNGHIVRLGRRV yielded a protein stability index of 0.63 ± 0.011.

TNKKQIEPSKIR showed a protein stability index of 0.763 ± 0.086.

Regarding TNKNNKKKKEKI, the protein stability index amounted to 0.743 ± 0.049.

Consider TNQRKKTVAGEK, for which the protein stability index was found to be 0.672 ± 0.025.

Consider TNSQTKKKINKI, for which the protein stability index is 0.661 ± 0.038.

Turning to TNYIPRQSKKGG, the protein stability index came out at 0.71 ± 0.022.

As to TNYKIKDDRLHR, the protein stability index stood at 0.699 ± 0.014.

In turn, TPCTFPPLIRSP displayed a protein stability index of 0.672 ± 0.039.

TPFLPLPSRPRR: the protein stability index was found to be 0.726 ± 0.0078.

The sequence TPHPPAAPPPPL came in with a protein stability index of 0.766 ± 0.082.

The sequence TPLGLSVSSPPT displayed a protein stability index of 0.661 ± 0.14.

With TPLPLRFRCPYS, the protein stability index was determined as 0.639 ± 0.04.

For TPLPPSALPLPL, the protein stability index is 0.724 ± 0.066.

Regarding TPPSPLPPSPPR, the protein stability index is 0.728 ± 0.058.

For the sequence TPQTTQIKNEKH, the protein stability index was determined as 0.789 ± 0.14.

As for TPRAALVVSPLV, the protein stability index worked out at 0.7484 ± 0.0018.

On to TPRYALVRHHPR, for which the protein stability index turned out to be 0.695 ± 0.098.

In the case of TPSCPALRGDAE, the protein stability index came out at 0.661 ± 0.016.

TPSLLSPPLSLA: the protein stability index came to 0.7036 ± 0.0027.

TPSNTRPTLHIP had a protein stability index of 0.6404 ± 0.0011.

The sequence TPSSLLLISPPS gave a protein stability index of 0.703 ± 0.083.

TQLNATVSWTEK yielded a protein stability index of 0.665 ± 0.014.

For TQSAPGIPGAGE, the protein stability index was 0.65 ± 0.025.

As for TQVGTLANASGP, the protein stability index was found to be 0.671 ± 0.046.

TRAGRGGCASQD returned a protein stability index of 0.701 ± 0.028.

TRCGGRWGEGWR returned a protein stability index of 0.72 ± 0.028.

For the sequence TRCRLRETISRR, the protein stability index was 0.651 ± 0.067.

In turn, TRCSIPSSLSLM returned a protein stability index of 0.677 ± 0.016.

Turning to TRGTRGWGSVVG, the protein stability index was determined as 0.735 ± 0.018.

Sequence TRLKKTEKTKER had a protein stability index of 0.739 ± 0.025.

TRLSRGTRVEYR: the protein stability index came to 0.651 ± 0.025.

Regarding TRLTSATHGVCC, the protein stability index is 0.6331 ± 0.0053.

TRRAISPEGRWL: the protein stability index amounted to 0.645 ± 0.014.

For TRRGDRVGVGSA, the protein stability index came to 0.589 ± 0.072.

The sequence TRYKSFWSLASI returned a protein stability index of 0.703 ± 0.064.

Take TSASLLLSFAVP: the protein stability index turned out to be 0.6768 ± 0.0022.

As to TSGEIESTSKKK, the protein stability index was determined as 0.689 ± 0.055.

In turn, TSGHSCGRGLLD registered a protein stability index of 0.64 ± 0.012.

For TSGLSSAGSRSL, the protein stability index is 0.647 ± 0.044.

In turn, TSGPVSCLCECL yielded a protein stability index of 0.598 ± 0.029.

Regarding TSKVEVDKGKLE, the protein stability index turned out to be 0.723 ± 0.051.

Turning to TSLKGHFGIRLW, the protein stability index was found to be 0.6763 ± 0.0021.

In the case of TSMRRWSGRYGG, the protein stability index was 0.743 ± 0.075.

Take TSPLPTLLNDPP: the protein stability index was found to be 0.523 ± 0.0081.

The sequence TSSWGGLVASLR returned a protein stability index of 0.74 ± 0.04.

Regarding TSSYFVLFLTSP, the protein stability index was 0.635 ± 0.087.

With TSVSLYWDSNLC, the protein stability index amounted to 0.751 ± 0.033.

Sequence TTGGRGSRVGGR registered a protein stability index of 0.6975 ± 0.0024.

The sequence TTQPQVGHHRTS displayed a protein stability index of 0.715 ± 0.021.

As for TTRYKKQNRRKE, the protein stability index turned out to be 0.74 ± 0.24.

In turn, TTSRADKEPFRL gave a protein stability index of 0.675 ± 0.027.

In turn, TTYYTKPPRPKR returned a protein stability index of 0.69 ± 0.035.

Turning to TVACILPLAQSL, the protein stability index came out at 0.706 ± 0.075.

With TVERRYTGDWGG, the protein stability index came out at 0.726 ± 0.032.

Consider TVFDPLGLPALL, for which the protein stability index was determined as 0.617 ± 0.04.

The sequence TVGGAMSCLGWL displayed a protein stability index of 0.714 ± 0.011.

Regarding TVSEQWKLLGER, the protein stability index is 0.736 ± 0.051.

Consider TWMRIRLFRFIP, for which the protein stability index was determined as 0.5744 ± 0.0011.

TWVGPIRISNQQ returned a protein stability index of 0.639 ± 0.01.

Sequence TYIVVAPTLARL gave a protein stability index of 0.67 ± 0.095.

In the case of TYSERADLCAQL, the protein stability index came out at 0.678 ± 0.016.

As for TYTELSFKNCVE, the protein stability index was determined as 0.713 ± 0.042.

The sequence VAASGEVVPLMA gave a protein stability index of 0.604 ± 0.046.

Turning to VACCKIRSGKSH, the protein stability index was 0.687 ± 0.056.

In turn, VAGGTCGGRACC gave a protein stability index of 0.694 ± 0.099.

VALLRDSCLGVV gave a protein stability index of 0.671 ± 0.018.

In turn, VARGVGGGVWRS came in with a protein stability index of 0.704 ± 0.015.

The sequence VASVWGVGFVAS registered a protein stability index of 0.694 ± 0.058.

On to VAVRGGSGDWGR, for which the protein stability index worked out at 0.713 ± 0.023.

In the case of VAVVSATVGASG, the protein stability index was 0.68 ± 0.026.

For the sequence VAVWWVQCAGGV, the protein stability index is 0.66131 ± 0.00034.

VAWRQSVDLGLL displayed a protein stability index of 0.685 ± 0.047.

The sequence VAWSACRLSLWG had a protein stability index of 0.889 ± 0.016.

On to VAWYALPWCVLI, for which the protein stability index is 0.6211 ± 0.0041.

VCAVPSILPPPP returned a protein stability index of 0.6902 ± 0.0061.

In the case of VCCSDSLCFVVS, the protein stability index worked out at 0.601 ± 0.052.

VCCSQWPLGFSV returned a protein stability index of 0.733 ± 0.068.

In turn, VCEGFRTWALGG yielded a protein stability index of 0.722 ± 0.03.

Sequence VCESAGERVMGG had a protein stability index of 0.705 ± 0.051.

In the case of VCGFRVGGYIGV, the protein stability index was 0.723 ± 0.064.

As for VCGGGEGGERGG, the protein stability index worked out at 0.799 ± 0.057.

For the sequence VCGLGGCGGLGV, the protein stability index was 0.731 ± 0.039.

As to VCGSRAVRRTEL, the protein stability index stood at 0.712 ± 0.07.

The sequence VCSGPKSPATQQ yielded a protein stability index of 0.695 ± 0.048.

For the sequence VCSGSGIGNLFE, the protein stability index was 0.7912 ± 0.0019.

In the case of VCSPLLIYSVGV, the protein stability index turned out to be 0.624 ± 0.051.
